Values of other authors, collected in article PMC4854875.

Target: UBE2T (Homo sapiens) (UniProt Q9NPD8)
Sequence of UniProt Q9NPD8 (Q9NPD8 whole entry): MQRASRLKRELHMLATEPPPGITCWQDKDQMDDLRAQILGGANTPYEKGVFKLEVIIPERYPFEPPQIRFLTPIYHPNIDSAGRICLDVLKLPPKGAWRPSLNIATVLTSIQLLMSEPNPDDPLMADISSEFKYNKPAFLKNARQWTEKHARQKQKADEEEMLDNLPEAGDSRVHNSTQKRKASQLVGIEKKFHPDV

Kd: 454 nM
Substance: FANCL (from UniProt Q9NW38)
